US20220242943A1 (Regeneron, published 2022)
Where two headings read alike, the source gives them in different places.

B1: H4H13145P (antibody, human IgG4 S228P, kappa, V domains shown)
VH: QVQLVQSGTEVKKPGASVKVSCKASGYTYGAYAISWVRQAPGQGLEWMGWISAYNGNTNYAQKFQDRVTMTTDTSTNTAYMELRGLKSDDTAVYFCARAWNSFDYWGQGTLVTVSS
VL: not shown
notes: also called REGN13335; anti-PDGF-B antibody 1
B2: H4H13145P (antibody, human IgG4 S228P, kappa, V domains shown)
VH: B1 VH
VL: not shown
notes: also called REGN13335
B3: mouse PDGF-BB (ligand, UniProt P31240 82-190, looked up)
chain: SLGSLAAAEPAVIAECKTRTEVFQISRNLIDRTNANFLVWPPCVEVQRCSGCCNNRNVQCRASQVQMRPVQVRKIEIVRKKPIFKKATVTLEDHLACKCETIVTPRPVT
B4: H4H13132P (antibody, human IgG4 S228P, kappa, V domains shown)
VH: QVQLVQSGAEVKKPGSSVKVSCKASGGTFSSYAISWVRQAPGQGLEWMGGIIPIFGTANYAQKFQGRVTITTDESTSTAYMELSSLRSEDTAVYYCAREGYGDYYFGMDVWGQGTTVTVSS
VL: not shown
notes: also called REGN15171; anti-PDGF-B antibody 2
B5: H4H13132P (antibody, human IgG4 S228P, kappa, V domains shown)
VH: B4 VH
VL: not shown
notes: also called REGN15171
B6: Sino Biologics cynomolgus PDGF-BB Fc tag (Fc fusion, cynomolgus monkey, not shown: a dimerising Fc or GST)
chain: SLGSLTVAEPAMIAECKTRTEVFEISRRLIDRTNANFLVWPPCVEVQRCSGCCNNRNVQCRPTQVQLRPVQVRKIEIVRKKPIFKKATVTLEDHLACKCETVAAARPVT
B7: cynomolgus monkey (Macaca fascicularis) PDGF-BB (ligand)
chain: B6 chain

Key:
[1] = target: B3; experiment: cell-based or functional assay
[2] = target: B7; experiment: cell-based or functional assay
[3] = target: T1, human PDGF-AB (human, UniProt P04085 87-211); experiment: cell-based or functional assay
[4] = target: T1, human PDGF-AB; experiment: cell-based or functional assay; remark: listed apart in the source
[5] = target: B3; experiment: SPR, captured mAb, 25 C
Experimental: (§1) The equilibrium dissociation constants (KD values) for human and mouse PDGF-B binding to purified anti-PDGF-B monoclonal antibodies of this disclosure were determined using a real-time surface plasmon resonance (SPR) biosensor instrument, MASS-1. All binding studies were performed in 10 mM HEPES, 300 mM NaCl, 3 mM EDTA, 1 μg/mL Heparin, and 0.05% v/v Surfactant Tween-20, pH 7.4 (HBS-T) running buffer at 25° C. and 37° C. […] The HCA sensor surface was first derivatized by amine coupling the monoclonal mouse anti-human Fc antibody (GE, #BR100839) and anti-PDGF-B monoclonal antibodies were individually captured. […] Kinetic association (kₐ) and dissociation (kd) rate constants were determined by fitting the real-time binding sensorgrams to a 1:1 binding model with mass transport limitation using Scrubber 2.0c software. Binding dissociation equilibrium constant (KD) and dissociative half-life (t½) for different anti-PDGF-B monoclonal antibodies were calculated from the kinetic rate constants as: […]

[6] = target: B3; experiment: SPR, captured mAb, 37 C
Experimental: as §1

[7] = target: B3; experiment: SPR (Bia-core), 37 C as headed
[8] = target: B7; experiment: SPR (Bia-core), 37 C as headed
[9] = target: B3; experiment: SPR, 37 C (listed in PK study table)
[10] = target: B7; experiment: SPR (Bia-core), 37 C as headed; 37 C as headed
[11] = target: B7; experiment: SPR (Biacore T200 or MASS-2), mAb captured by anti-human Fc, 25 C
Experimental: (§2) All binding studies were performed in 10 mM HEPES, 300 mM NaCl, and 0.05% v/v Surfactant Tween-20, pH 7.4 (HBS-P) running buffer at 25° C.
(§3) The association rate (kₐ) and dissociation rate (kd) were determined by fitting the real-time binding sensorgrams to a 1:1 binding model with mass transport limitation using Scrubber 2.0c curve-fitting software. Binding dissociation equilibrium constant (KD) and dissociative half-life (t½) were calculated from the kinetic rates as: […]

[12] = target: T2, rat PDGF-BB (rat, UniProt Q05028 74-182); experiment: as above
T2 construct: also called rPDGF-BB
Experimental: as §2, §3

[13] = target: T3, mouse PDGF-BB (mouse, UniProt P31240 82-190, limits assumed); experiment: SPR MASS-1, captured mAb, 37C
T3 construct: also called mPDGF-BB; mPDGF-B
Experimental: as §1

[14] = target: B6; experiment: SPR 25C, mAb captured on anti-hFc; analyte Monkey PDGF-BB Fc homodimer-mouse Fc (IgG1) tag (Sino Biological)
Experimental: The sample was injected at 25 uL/minute for 3 minutes and the dissociation was monitored for 10 minutes. The kinetics parameters were evaluated by fitting the real time data using 1:1 binding model with mass transport limitation.

[15] = target: T4, human PDGFRβ on HEK293/SRE-luc/hPDGFRβ cells (human, UniProt P09619 33-1106); experiment: cell-based or functional assay
T4 sequence (P09619 33-1106): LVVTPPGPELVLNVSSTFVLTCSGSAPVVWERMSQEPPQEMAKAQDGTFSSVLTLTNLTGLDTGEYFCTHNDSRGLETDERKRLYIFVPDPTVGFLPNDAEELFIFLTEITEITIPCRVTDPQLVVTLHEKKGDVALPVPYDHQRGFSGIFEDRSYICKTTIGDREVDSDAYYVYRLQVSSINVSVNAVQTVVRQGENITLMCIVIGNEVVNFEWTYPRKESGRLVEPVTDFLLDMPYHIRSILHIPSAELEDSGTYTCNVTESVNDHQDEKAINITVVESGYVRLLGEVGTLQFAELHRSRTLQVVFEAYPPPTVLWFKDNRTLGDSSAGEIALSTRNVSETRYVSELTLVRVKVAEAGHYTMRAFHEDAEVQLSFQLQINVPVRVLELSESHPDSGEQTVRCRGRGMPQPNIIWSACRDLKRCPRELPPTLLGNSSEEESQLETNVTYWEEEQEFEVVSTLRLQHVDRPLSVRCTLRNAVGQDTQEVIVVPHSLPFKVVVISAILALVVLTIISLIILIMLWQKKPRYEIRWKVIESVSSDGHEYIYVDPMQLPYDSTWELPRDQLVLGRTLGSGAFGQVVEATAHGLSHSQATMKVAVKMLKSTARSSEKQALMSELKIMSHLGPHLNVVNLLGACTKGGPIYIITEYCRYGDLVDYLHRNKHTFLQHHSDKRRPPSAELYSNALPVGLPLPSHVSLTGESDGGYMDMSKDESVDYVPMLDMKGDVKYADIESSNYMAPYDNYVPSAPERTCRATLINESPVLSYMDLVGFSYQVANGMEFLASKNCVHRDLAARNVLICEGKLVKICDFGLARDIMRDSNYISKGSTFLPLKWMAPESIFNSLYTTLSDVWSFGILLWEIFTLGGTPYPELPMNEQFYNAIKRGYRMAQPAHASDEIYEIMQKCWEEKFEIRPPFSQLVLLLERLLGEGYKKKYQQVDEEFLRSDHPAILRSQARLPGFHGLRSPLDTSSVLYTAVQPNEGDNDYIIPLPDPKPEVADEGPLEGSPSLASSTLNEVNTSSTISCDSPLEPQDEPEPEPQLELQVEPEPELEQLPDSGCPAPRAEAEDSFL

[16] = target: T4, human PDGFRβ on HEK293/SRE-luc/hPDGFRβ …; experiment: cell-based or functional assay; remark: listed apart in the source
[17] = target: B7; experiment: cell-based or functional assay; remark: listed apart in the source
[18] = target: T1, human PDGF-AB; experiment: cell-based or functional assay; remark: listed apart in the source
[19] = target: B3; experiment: SPR (Bia-core), 37 C as headed; remark: listed apart in the source
[20] = target: B7; experiment: SPR (Bia-core), 37 C as headed; remark: listed apart in the source
[21] = target: B7; experiment: SPR (Bia-core), 37 C as headed; 37 C as headed; remark: listed apart in the source
[22] = target: Cynomolgus monkey PDGF-BB (cynomolgus monkey (Macaca fascicularis), UniProt A0A2K5UX81 82-190); experiment: cell-based or functional assay
[23] = target: T5, human PDGF-AB (human, UniProt P04085 87-211); experiment: blocking ELISA: 100 pM Biot-PDGF-AB on 1 ug/ml hPDGFRb-mmH
T5 construct: also called hPDGF-AB; hPDGF AB

[24] = target: mfPDGFRβ-ecto/hPDGFRb-cyto (monkey (mf); human, UniProt P09619 554-1106); experiment: cell-based or functional assay
Chain of mfPDGFRβ-ecto/hPDGFRb-cyto (P09619 554-1106): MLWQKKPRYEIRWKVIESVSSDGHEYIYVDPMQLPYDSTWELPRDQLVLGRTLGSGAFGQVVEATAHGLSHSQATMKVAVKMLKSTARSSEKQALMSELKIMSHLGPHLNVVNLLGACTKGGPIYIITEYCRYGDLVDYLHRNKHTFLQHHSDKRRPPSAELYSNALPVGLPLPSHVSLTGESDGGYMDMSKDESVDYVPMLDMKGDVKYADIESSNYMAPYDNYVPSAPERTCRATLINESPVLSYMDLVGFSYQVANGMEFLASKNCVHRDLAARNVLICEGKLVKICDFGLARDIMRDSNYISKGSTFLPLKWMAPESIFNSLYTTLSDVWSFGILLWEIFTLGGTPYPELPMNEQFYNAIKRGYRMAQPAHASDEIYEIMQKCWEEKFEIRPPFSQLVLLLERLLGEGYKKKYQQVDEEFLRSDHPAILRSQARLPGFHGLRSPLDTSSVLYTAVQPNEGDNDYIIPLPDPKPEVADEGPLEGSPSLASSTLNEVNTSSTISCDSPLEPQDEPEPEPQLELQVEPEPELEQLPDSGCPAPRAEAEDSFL

Binder: B1
- IC50, SRE-luciferase, 600 pM mPDGFBB [1]: 4.5e-10 M
- IC50 (head printed IC51), SRE-luciferase, 500 pM mfPDGFBB [2]: 3.2e-10 M
- A647 Intensity, internalization in PASMC, pre-blocking Ab: NA [3]: 2.4e+07
- A647 Intensity, internalization in NHLF, pre-blocking Ab: NA [4]: 1.9e+07
- Kd [5]: ≤ 0.0023 nM
- Kd [6]: 0.000954 nM
- Kd [7]: 0.000954 nM
- t1/2 [8]: 12.8 h
- Kd [9]: 0.000954 nM
- Kd [10]: 0.0161 nM
- Kd [11]: 0.0161 nM
- t½ [11]: 12.8 h
- Kd [12]: 0.125 nM
- t½ [12]: 0.682 h

Binder: B2
- Kd [13]: 0.000954 nM
- Kd [14]: 0.0268 nM
- t½ [14]: 17.8 h

Binder: B3
- EC50 of ligand, SRE-luciferase in HEK293/SRE-luc/hPDGFRβ cells [15]: 0.93 nM
- EC50 of ligand, SRE-luciferase in HEK293/SRE-luc/hPDGFRβ cells [16]: 0.93 nM

Binder: B4
- IC50 (head printed IC51), SRE-luciferase, 500 pM mfPDGFBB [17]: 8.9e-09 M
- (%) Inhibition, calcium flux in HLF cells, 1 nM ligand, Full Time Course [18]: 63%
- A647 Intensity, internalization in PASMC, pre-blocking Ab: NA [3]: 772000
- A647 Intensity, internalization in NHLF, pre-blocking Ab: NA [4]: 679000
- Kd [6]: 0.0867 nM
- Kd [19]: 0.0867 nM
- t1/2 [20]: 4.62 h
- Kd [9]: 0.0867 nM
- Kd [21]: 0.00967 nM
- Kd [11]: 0.00967 nM
- t½ [11]: 4.62 h
- Kd [12]: 0.103 nM
- t½ [12]: 0.683 h

Binder: B5
- IC50, luciferase in HEK293/SRE-Luc/mfPDGFRβ-ecto/hPDGFRb-cyto cells [22]: 0.781 nM
- Kd [13]: 0.0867 nM
- IC50 [23]: 14 nM
- Kd [14]: 0.0256 nM
- t½ [14]: 18.4 h

Binder: B6
- EC50, luciferase in HEK293/SRE-Luc/mfPDGFRβ-ecto/hPDGFRb-cyto cells [24]: 0.167 nM

Binder: B7
- EC50 of ligand, SRE-luciferase in HEK293/SRE-luc/hPDGFRβ cells [15]: 0.064 nM
- EC50 of ligand, SRE-luciferase in HEK293/SRE-luc/hPDGFRβ cells [16]: 0.064 nM
